B1: JR099 (antibody, V domains shown)
VH: EVQLVESGGGLVQPGGSLRLSCAASGFTFSDYDMHWVRQVRGKGLEWLSIIGTAGDTYYPDSVKGRFTISRENAKNSLYLQMNSLRVGDTGVYYCARDRASTSGTDGMDVWGQGTTVTVSS
VL: DIQLTQSPSSLSASVGDRVTITCRASQSISRYLNWYQQRPGKAPKLLIYAAFTLESGVPSRFSGSGSGTDFTLTISSLQAEDFATYHCQQSYSTSALTFGGGTKVEIK
B2: JR206 (antibody, V domains shown)
VH: EVQLVQSGAEVKKPGESLKISCKGSGFNFSRYWIGWVRQMPGKGLEWMGIIYLGDSDTTYSPSFQGQVTISADKSISTAYLQWSSLKASDTAMFYCATRSGYFYGYETWGQGTLVTVSS
VL: SYELTQPPSVSVAPGKTAKITCGGNNIGSKTVHWYQQRPGQAPVLVVYDNRDRPSGIPERFSGSNSGNTAALTISRVEAGDEADYYCQVWDSSSDHYVFGTGTKVTVL
B3: JR052 (antibody, V domains shown)
VH: QVQLVQSGAEVKKPGASVKVSCEASGYTFTTYHMHWVRQAPGQGLEWMGIINPSRGSANYAQKFQGRVTMTRDTSTRTVYMELSSLRSEDTALYYCARDPNYYDSSGHKIEYFQHWGQGTLVTVSS
VL: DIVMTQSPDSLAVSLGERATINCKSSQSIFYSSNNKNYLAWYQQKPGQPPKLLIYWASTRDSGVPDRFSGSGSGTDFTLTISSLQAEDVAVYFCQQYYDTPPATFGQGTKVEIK
B4: JR318 (antibody, V domains shown)
VH: QVQLVQSGAEVKSPGASVKVSCKASGYTFTSYDINWVRQATGQGLEWMGWMNPNSGNTDYAQKFQGRVTMTRDTSISTAYMELSSLRSEDTAIYYCARRSGYYNFGVGTRTNYYYYGMDVWGQGTTVTVSS
VL: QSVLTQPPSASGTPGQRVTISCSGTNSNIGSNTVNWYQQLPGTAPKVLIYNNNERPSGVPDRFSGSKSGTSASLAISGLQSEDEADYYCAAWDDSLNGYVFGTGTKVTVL
B5: JR054 (antibody, V domains shown)
VH: QLQLQESGPRLMKPSETLSLTCSVSGGSISRSHYYWGWIRQPPGKGLEWIGSIYYNGSTYYNPSLRSRVTISVDTTKNQFSLKLSSVTAADTAEYYCARPGPSYYDRSGYNRAEYFQHWGQGTLVTVSS
VL: IRMTQSPSSLSASVGDRVTITCQASQDISNYLNWYQQKPGKAPKLLIYDASNLETGVPPRFSGSGSGTDFTFTISSLQPEDFATYSCQQYDNLPLTFGGGTKVEIK
B6: JR050 (antibody, V domains shown)
VH: QVQLVQSGAEVKKPGASVKVSCKTSGDTFTNHYMHWVRQAPGQGLEWMGIINPSAGSTSYAQKFQGRVTMTRDTSTSTVYMELSSLRSEDTAVYYCARDIVFIPALDAFDIWGQGTMVTVSS
VL: EIVLTQSPATLSLSPGERATLSCRASQSVSSYLAWYQQKPGQAPRLLIYDTSNRATGIPARFSGSGSGTDFTLTISSLEPEDFAVYYCQQRRNWPPMYTFGQGTKLEIK
B7: JR202 (antibody, V domains shown)
VH: VQLVESGGGVVQPGRSLRLSCAASGFTFTTYTLHWVRQAPGKGLEWVAVISYDGNNKYYADSVKGRFTISRDDSKNTLYVQMNSLRAEDTAVYYCARSIGYYTGVDYWGQGTLVTVSS
VL: NFMLTQPHSVSESPGKTVTISCTGSSGSIAINYVQWYQQRPGSAPITVIYEDNQRPSGVPDRFSGSIDSSSNSASLTISGLKTEDEADYYCQTYHSSTWVFGGGTKLTVL
B8: JR317 (antibody, V domains shown)
VH: QVQLVESGGGVVQPGKSLRLSCAASGFTFSSYGMHWVRQAPGKGLEWVAVIWYDGSNKYYADSVKGRFTISRDNSKSTLYVQMNSLRAEDTAVYYCARVRTIFRPLDYMDVWGKGTTVTVSS
VL: SYELTQPPSVSVAPGQTARITCGGNNIGSKSVHWYQQKPGQAPVLVVYDDSARPSGIPERFSGSNSGNAATLTISRVEAGDEADYYCQVWDRDYSSDHLWVFGGGTKLTVL
B9: JR316 (antibody, V domains shown)
VH: QVQLVQSGAEVKKPGSSVKVSCKASGGSFSTHGISWVRQAPGQGLEWMGGIIPISGRANYAQNFQGRVTITADESTKTAYMELSSLRSEDTAVYYCARDDRFCDTTKCYGLWFDPWGQGTLVTVSS
VL: DIQMTQSPSSLSASVGDRVTITCRASQSISTYLNWYQQKPGKAPKVLIYAASTLQSGVPSRFSGSGSGTDFTLTISSLQPEDFATYYCQQTYSSPRAFGQGTKVEIK
B10: JR189 (antibody, V domains shown)
VH: EVQLVESGGGLIQPGGSLRLSCAASGFNVNSNYINWVRQAPGKGLEWVSVIYSSGKTYFADSVKGRFTISRDNSKNTLYLQMNILRAEDTAVYYCATTTTVTPIWGQGTLVTVSS
VL: DIQMTQSPSALSASVGDRVTFTCRASQDIRNYLGWYQQKPGEAPKLLVYAASSLQSGVPSRFSGSGSGTDFTLTISSLQPEDFATYYCLQDYNYPWTFGQGTKVEIK
B11: JR162 (antibody, V domains shown)
VH: EVQLLESGGGLVQQGGSLRLSCAASGFTFSGHAMSWVRQAPGEGLEWVSGISDGGGSTYYADSVRGRFTISRDNSKNTLYLQMNSLRAEDTAVYYCARRGGYCTNTICYTRYYYMDVWGKGTTVTVSS
VL: DIQMTQSPSSVSASVGDRVTITCRSSQDISSWLAWYQQKPGKAPKLLIFAASSLQSGVPSRFSGSGSGTDFTLTISSLQPEDFATYYCQQANSFPLTFGGGTKVEI
B12: JR209 (antibody, V domains shown)
VH: EVQLLESGGGLVQPGQSLRLYCAASGFTFSSHGMSWVRQAPGKGLEWVSSISSSGGRTYDADSVKGRFTISRDNSENTVYLQMNSLRVADTAVYYCVKENGPHRWSGEVHGMDVWGQGTTVTVSS
VL: QSVLTQPPSVSGAPGQRVTISCTGSSSNIGTGYDVHWYQHLPGTAPKLLIYDNNNRPSGVPDRFSGSKSATSASLAITGLQAEDEGDYYCQSYDTSLSGLAFGGGTKLTVL
B13: JR312 (antibody, V domains shown)
VH: QVQLVQSGAEVKKPGSSVKVSCKASGAKPSGVSFSSYAFNWVRRAPGQGLEWVGGIIPIFGPANYAQKFQGRVTITADESTSTAYMELSSLSSEDTAIYYCARERYCNSPDCYSWERGDFDVWGQGTMVTVSS
VL: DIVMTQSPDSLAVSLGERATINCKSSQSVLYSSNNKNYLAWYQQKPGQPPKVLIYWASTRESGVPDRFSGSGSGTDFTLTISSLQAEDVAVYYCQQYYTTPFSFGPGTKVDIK
B14: JR057 (antibody, V domains shown)
VH: VQLVESGGGVVQPGRSLRLSCAASGFTFSSYAMHWVRQAPGKGLEWVALISYDGNNKYYADSVKGRFTVSRDNSKNTLFLQMNSLRAEDTAVYYCARDNEVSAAFDFWGQGTMVTVSS
VL: EIVLTQSPGTLSLSPGERATLSCRASQSLSSTYLAWYQHKPGQAPRLLIYAASSRATDIPDRFSGSGSGTDFTLTISRLEPEDFAVYYCQQYGGSPMCSFGQGTKLEIK
B15: JR186 (antibody, V domains shown)
VH: EVQLLESGGGLIPPGGSLRLSCAASGFTFSSYAMSWVRQAPGKGLEWVSGISGSGTDTDEGDSVKGRFTISRDNSKNTLWLQIHTLRVEDTAIYYCAKASRGYVSNFDYFDRWGQGTLVTVSS
VL: SYELTQPPSVSVAPGETAKITCGGDNIGTKSVHWYLQKAGQAPVLVISDDSNRPSGIPERFSGSNSGNTATLTINRVEGGDEADYYCQVWTSFGAGTRVTVI

Experiments:
[1] = target: T1, SARS-CoV-2 Wuhan-Hu-1 RBD (SARS-CoV-2, Wuhan-Hu-1 (GenBank …, UniProt P0DTC2)); test: cell-based or functional assay
[2] = target: T1, SARS-CoV-2 Wuhan-Hu-1 RBD; test: BLI; settings: both partners purified

| Binder | neutralisation IC50, Wuhan-Hu-1 pseudovirus [1] | binding result [2] |
| --- | --- | --- |
| B1 | 0.0463 µg/mL | binds |
| B2 | 0.137 µg/mL | binds |
| B3 | 0.0239 µg/mL | binds |
| B4 | 0.00652 µg/mL | binds |
| B5 | 0.0513 µg/mL | binds |
| B6 | > 1 µg/mL | binds |
| B7 | 0.00354 µg/mL | binds |
| B8 | 0.0344 µg/mL | binds |
| B9 | 0.0108 µg/mL | binds |
| B10 | 0.0077 µg/mL | binds |
| B11 | 0.00455 µg/mL | binds |
| B12 | 0.0901 µg/mL | binds |
| B13 | 0.0271 µg/mL | binds |
| B14 | 0.0142 µg/mL | binds |
| B15 | 0.0742 µg/mL | binds |

Source: paper PMC9253517 (The Journal of Experimental Medicine, 2022)
